Experimental data from US7915393B2 (Corixa Corporation, priority 2001, dated 2011).

Test system: WT1-specific CTL targets (DC transduced with WT1 or pulsed with WT1 peptides)
Assay: CTL by chromium release after WT1 DNA or adenovirus/alphavirus immunization
Format: in vivo, C57/BI6 mice; HLA-A2/Kb transgenic mice
Conditions: C57/BI6 mice, 3 x 100 μg, 25:1 E:T ratio
Description: Mice were sacrificed 2-3 weeks after the final immunization and CTL were evaluated by standard Chromium release assay.
Mice were sacrificed 2-3 weeks after the final immunization and CTL were evaluated by standard Chromium release assay. […] Thus, this immunization strategy also effectively elicits WT1-specific CTL in vivo.

B1: WT1 DNA: naked DNA encoding the splice variant of WT1, SEQ ID NO:381 (nucleic acid)
DNA: ATGGGCTCCGACGTTCGTGACCTGAACGCACTGCTGCCGGCAGTTCCGTCCCTGGGTGGTGGTGGTGGTTGCGCACTGCCGGTTAGCGGTGCAGCACAGTGGGCTCCGGTTCTGGACTTCGCACCGCCGGGTGCATCCGCATACGGTTCCCTGGGTGGTCCGGCACCGCCGCCGGCACCGCCGCCGCCGCCGCCGCCGCCGCCGCACTCCTTCATCAAACAGGAACCGAGCTGGGGTGGTGCAGAACCGCACGAAGAACAGTGCCTGAGCGCATTCACCGTTCACTTCTCCGGCCAGTTCACTGGCACAGCCGGAGCCTGTCGCTACGGGCCCTTCGGTCCTCCTCCGCCCAGCCAGGCGTCATCCGGCCAGGCCAGGATGTTTCCTAACGCGCCCTACCTGCCCAGCTGCCTCGAGAGCCAGCCCGCTATTCGCAATCAGGGTTACAGCACGGTCACCTTCGACGGGACGCCCAGCTACGGTCACACGCCCTCGCACCATGCGGCGCAGTTCCCCAACCACTCATTCAAGCATGAGGATCCCATGGGCCAGCAGGGCTCGCTGGGTGAGCAGCAGTACTCGGTGCCGCCCCCGGTCTATGGCTGCCACACCCCCACCGACAGCTGCACCGGCAGCCAGGCTTTGCTGCTGAGGACGCCCTACAGCAGTGACAATTTATACCAAATGACATCCCAGCTTGAATGCATGACCTGGAATCAGATGAACTTAGGAGCCACCTTAAAGGGCCACAGCACAGGGTACGAGAGCGATAACCACACAACGCCCATCCTCTGCGGAGCCCAATACAGAATACACACGCACGGTGTCTTCAGAGGCATTCAGGATGTGCGACGTGTGCCTGGAGTAGCCCCGACTCTTGTACGGTCGGCATCTGAGACCAGTGAGAAACGCCCCTTCATGTGTGCTTACCCAGGCTGCAATAAGAGATATTTTAAGCTGTCCCACTTACAGATGCACAGCAGGAAGCACACTGGTGAGAAACCATACCAGTGTGACTTCAAGGACTGTGAACGAAGGTTTTTTCGTTCAGACCAGCTCAAAAGACACCAAAGGAGACATACAGGTGTGAAACCATTCCAGTGTAAAACTTGTCAGCGAAAGTTCTCCCGGTCCGACCACCTGAAGACCCACACCAGGACTCATACAGGTGAAAAGCCCTTCAGCTGTCGGTGGCCAAGTTGTCAGAAAAAGTTTGCCCGGTCAGATGAATTAGTCCGCCATCACAACATGCATCAGAGAAACATGACCAAACTCCAGCTGGCGCTTTGAG
lysis (WT1-specific cytotoxic T cell response): 40%
